Test results as given in patent US20190134153A1, “IMMUNOMODULATORY EFFECT OF INHALED KINASE INHIBITOR PEPTIDES IN LUNG” (MOERAE MATRIX, INC., priority 2017, published 2019).

Columns and labels:
Experiment in all cases: Kinase Profiling Assay
Assay type in all cases: biochemical
Conditions in all cases: 100 μM
EphB1(h) = biological target: T1, EphB1(h) (Homo sapiens, UniProt P54762)
T1 sequence (P54762 18-984): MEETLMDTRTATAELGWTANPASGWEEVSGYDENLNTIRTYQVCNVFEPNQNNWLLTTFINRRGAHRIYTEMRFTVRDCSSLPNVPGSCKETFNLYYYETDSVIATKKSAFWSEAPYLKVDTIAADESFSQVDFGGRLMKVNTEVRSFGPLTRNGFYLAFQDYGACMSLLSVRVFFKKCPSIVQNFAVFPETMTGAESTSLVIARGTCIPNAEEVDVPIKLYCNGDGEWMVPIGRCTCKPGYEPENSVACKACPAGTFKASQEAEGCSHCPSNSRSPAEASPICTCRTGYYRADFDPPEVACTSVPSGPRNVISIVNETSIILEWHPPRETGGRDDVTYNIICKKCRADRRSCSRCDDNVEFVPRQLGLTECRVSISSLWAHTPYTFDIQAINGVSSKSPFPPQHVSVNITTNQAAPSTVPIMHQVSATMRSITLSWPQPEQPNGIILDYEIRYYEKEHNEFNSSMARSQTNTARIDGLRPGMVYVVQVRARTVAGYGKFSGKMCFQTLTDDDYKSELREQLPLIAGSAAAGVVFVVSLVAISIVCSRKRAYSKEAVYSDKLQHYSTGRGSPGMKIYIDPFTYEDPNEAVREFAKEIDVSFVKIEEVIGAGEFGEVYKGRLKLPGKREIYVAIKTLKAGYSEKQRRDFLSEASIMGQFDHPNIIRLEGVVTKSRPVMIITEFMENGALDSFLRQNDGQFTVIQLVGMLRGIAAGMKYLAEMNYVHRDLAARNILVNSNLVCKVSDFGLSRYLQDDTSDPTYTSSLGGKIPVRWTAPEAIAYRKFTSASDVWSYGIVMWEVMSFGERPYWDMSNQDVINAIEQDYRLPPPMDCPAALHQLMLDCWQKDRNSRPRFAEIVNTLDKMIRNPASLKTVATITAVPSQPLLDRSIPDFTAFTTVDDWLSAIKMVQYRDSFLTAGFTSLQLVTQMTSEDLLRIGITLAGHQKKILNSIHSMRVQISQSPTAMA

LKB1(h) = biological target: T2, LKB1(h) (Homo sapiens, UniProt Q15831)
T2 sequence (Q15831 1-433): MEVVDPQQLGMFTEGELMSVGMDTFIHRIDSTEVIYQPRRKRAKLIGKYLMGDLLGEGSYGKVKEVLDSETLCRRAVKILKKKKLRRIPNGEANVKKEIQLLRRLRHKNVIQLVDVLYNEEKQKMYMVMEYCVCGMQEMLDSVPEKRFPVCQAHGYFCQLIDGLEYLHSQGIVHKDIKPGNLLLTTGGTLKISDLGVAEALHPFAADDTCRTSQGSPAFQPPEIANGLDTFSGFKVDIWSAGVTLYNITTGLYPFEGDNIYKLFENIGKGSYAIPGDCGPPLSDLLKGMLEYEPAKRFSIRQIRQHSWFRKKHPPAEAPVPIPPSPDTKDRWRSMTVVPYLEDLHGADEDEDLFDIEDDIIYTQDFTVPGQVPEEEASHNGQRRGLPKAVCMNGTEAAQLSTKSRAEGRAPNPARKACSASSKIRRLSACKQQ
T2 sequence (Q7RTN6 1-431 partner): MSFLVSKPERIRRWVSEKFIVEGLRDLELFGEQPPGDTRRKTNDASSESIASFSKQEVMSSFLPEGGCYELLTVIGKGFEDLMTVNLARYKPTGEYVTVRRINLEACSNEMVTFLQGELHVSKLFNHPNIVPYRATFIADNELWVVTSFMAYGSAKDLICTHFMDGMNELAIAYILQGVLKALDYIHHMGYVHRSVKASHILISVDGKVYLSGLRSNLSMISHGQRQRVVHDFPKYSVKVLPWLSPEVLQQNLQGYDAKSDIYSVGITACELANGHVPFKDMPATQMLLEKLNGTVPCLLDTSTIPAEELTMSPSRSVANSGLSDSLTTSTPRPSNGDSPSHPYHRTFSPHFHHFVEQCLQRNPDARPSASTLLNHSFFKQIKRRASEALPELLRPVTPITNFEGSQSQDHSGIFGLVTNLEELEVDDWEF
T2 sequence (Q9Y376 1-341 partner): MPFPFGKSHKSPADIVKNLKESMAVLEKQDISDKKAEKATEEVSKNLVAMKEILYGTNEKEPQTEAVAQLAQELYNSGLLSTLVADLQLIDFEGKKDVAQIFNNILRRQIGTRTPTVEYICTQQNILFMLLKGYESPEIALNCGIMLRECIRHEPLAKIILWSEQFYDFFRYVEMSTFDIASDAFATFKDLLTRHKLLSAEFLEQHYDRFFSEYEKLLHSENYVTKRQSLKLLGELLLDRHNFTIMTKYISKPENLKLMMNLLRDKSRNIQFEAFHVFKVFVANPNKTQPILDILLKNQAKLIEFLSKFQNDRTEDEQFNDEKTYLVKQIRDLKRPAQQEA

Src(1-530)(h) = biological target: T3, Src(1-530)(h) (Homo sapiens, UniProt P12931)
T3 construct: Src(1-530)(h)

DCAMKL2(h) = biological target: T4, DCAMKL2(h) (Homo sapiens, UniProt Q8N568)
T4 sequence (Q8N568 1-766): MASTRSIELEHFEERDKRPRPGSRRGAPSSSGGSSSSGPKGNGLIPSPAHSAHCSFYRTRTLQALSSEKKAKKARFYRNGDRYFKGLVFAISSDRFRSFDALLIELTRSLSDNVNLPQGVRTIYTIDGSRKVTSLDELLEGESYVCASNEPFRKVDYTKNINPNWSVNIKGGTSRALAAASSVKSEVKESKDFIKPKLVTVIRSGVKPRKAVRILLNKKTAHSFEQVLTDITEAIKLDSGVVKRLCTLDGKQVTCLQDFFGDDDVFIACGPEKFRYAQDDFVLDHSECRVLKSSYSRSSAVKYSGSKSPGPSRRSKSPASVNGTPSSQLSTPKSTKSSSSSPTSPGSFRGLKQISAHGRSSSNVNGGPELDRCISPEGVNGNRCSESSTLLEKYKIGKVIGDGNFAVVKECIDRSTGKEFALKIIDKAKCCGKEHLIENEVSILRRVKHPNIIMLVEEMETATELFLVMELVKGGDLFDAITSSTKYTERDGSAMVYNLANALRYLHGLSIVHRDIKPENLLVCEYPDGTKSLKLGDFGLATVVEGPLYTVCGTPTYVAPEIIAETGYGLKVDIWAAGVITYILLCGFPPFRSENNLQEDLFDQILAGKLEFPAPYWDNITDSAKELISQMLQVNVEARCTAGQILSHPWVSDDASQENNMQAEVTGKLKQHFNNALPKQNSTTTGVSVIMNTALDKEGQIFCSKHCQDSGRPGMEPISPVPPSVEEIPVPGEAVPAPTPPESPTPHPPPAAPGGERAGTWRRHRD

Fgr(h) = Fgr(h) (Homo sapiens, UniProt P09769)

| Sequence | % activity (EphB1(h)) | % activity (LKB1(h)) | % activity (Src(1-530)(h)) | % activity (DCAMKL2(h)) | % activity (Fgr(h)) |
| --- | --- | --- | --- | --- | --- |
| HRRIKAWLKKIKALARQLGVAA [MMI-0500] | 37% | 51% | 21% | 56% | – |
| YARAAARQARAKALNRQLGVA [MMI-0200] | 95% | 99% | 75% | 131% | 71% |
| KAFAKLAARLYRKALARQLGVAA [MMI-0400] | 58% | 89% | 19% | 70% | 47% |
| FAKLAARLYRKALARQLGVAA [MMI-0300] | 44% | 101% | 23% | 81% | 60% |
